Test system: MS2 coat protein
Test: apparent KD of MS2 coat protein; designed switch direction (-1 OFF switch, 1 ON switch): -1; higher = weaker reporter binding
Method in brief: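 An oligonucleotide input, 200 uM small-molecule ligand, or no input was present during titration of SNAP-549-labelled MS2 coat protein, which was doubled from 0.7 or 1.5 nM to 3 µM. Designed RNA switches had been transcribed on Illumina chips by stalled E. coli RNA polymerase. Apparent KD per design is the median over clusters of curves fitted to normalised cluster fluorescence.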

[1] = input ligand: microRNA oligo, concentration not stated
[2] = Eterna round: R95, input ligand: microRNA oligo, concentration not stated
[3] = Eterna round: R95, input ligand: FMN 200 uM
[4] = Eterna round: R95, input ligand: none

| Sequence | apparent KD of MS2 coat protein (input ligand: FMN 200 uM) [nM] | apparent KD of MS2 coat protein [1] [nM] | apparent KD of MS2 coat protein (input ligand: none) [nM] | apparent KD of MS2 coat protein [2] [nM] | apparent KD of MS2 coat protein [3] [nM] | apparent KD of MS2 coat protein [4] [nM] |
| --- | --- | --- | --- | --- | --- | --- |
| AUAACGUAGCGAGGAUAUACGCGAGAUCGUUGCGUAGAAGGUGUAUCGUUGGACUUGAGGAUCACCCAAGUGAUGAGUCCUUCC [Mutated MS2 EX1.20] (Eterna round: R96, puzzle: Exclusion NG 1) | 43.8 | 34.7 | 40.7 | – | – | – |
| AUAAUGUGAGGAUAUCACGCCCAAAUAAAUGGGCGAAAUAAUGAGAAGGCACAUGAGGAUCACCCAUGUCCGAA [EX4 A.25] (Eterna round: R97, puzzle: Exclusion 4) | 180 | – | 33.5 | – | – | – |
| AUAAUGUGAGGAUAUCACGGCCCGGUAAAUCCGGUAAACGAUGAGAAGGCACAUGAGGAUCACCCAUGUUCCUG [EX4 A.2] (Eterna round: R97, puzzle: Exclusion 4) | 45.7 | – | 16.2 | – | – | – |
| AUACUCGUUGUGAGGAUAUCGUUUUCUUUACGGAUCGAGAAGGCACAUGAGGAUCACCCAUGUUUGACGUGAAU [JR_BMOE4_Sub093] (puzzle: Brourd's mod of Exclusion 4) | – | – | – | 30.8 | – | – |
| AUAGAGUCAGGAUAUACAGGUGGAGGAAAGCAGCAUAAGGAGUAGAAGGGACAUGAGGAUCACCCAUGUAAGUG [JR_Exclu4_Sub058] (puzzle: Exclusion 4) | – | – | – | 62.3 | 47.4 | 60.2 |
| AUAGGGUCAGGAUAUACGAGCAGGAGGAUGGAGCGGAGGCGGUAGAAGGGACAUGAGGAUCACCCAUGUAAGAA [JR_Exclu4_Sub052] (puzzle: Exclusion 4) | – | – | – | 16.3 | 21.4 | 19.2 |
| AUAUAGAUGGUCAGGAUAUGCUAGUGAUAACAGUAGCAGAAGGGACAUGAGGAUCACCCAUGUGGAUAGCGCAC [Brourd's EX4 #6] (Eterna round: R97, puzzle: Brourd's mod of Exclusion 4) | 123 | – | 37.1 | – | – | – |
| AUAUAGUCAGGAUAUACAUGAGGAUCACCCAUGUGGUAGUAGAUACAGUAGAGAUAGAGUAGAAGGGACGAUGA [EX3 #24] (Eterna round: R97, puzzle: Exclusion 3) | 113 | – | 31 | – | – | – |
| AUAUAGUCAGGAUAUCGAAGUGAGUGUUGGUUUGUAAGGUACGAGAAGGGACAUGAGGAUCACCCAUGUAGGAA [JR_Exclusion4)Sub003] (puzzle: Exclusion 4) | – | – | – | 42.7 | – | – |
| AUAUUACAUGAGGAUCACCCAUGUGAGGAUAUGGAGAGAGACCGCCCGGUCGCGUACACCAGAAGGCGCAGGCG [1st #60] (Eterna round: R97, puzzle: Exclusion 1) | 19.8 | – | 21.2 | – | – | – |
| AUAUUACGAGGAUAUCGUUUUUAUCACAUGAGGAUCACCCAUGUAAUUUAUGUUUCGUUUCGAGAAGGCGUAAGUU [JR_E5_Sub068] (puzzle: Exclusion 5) | – | – | – | 17.8 | – | – |
| AUAUUACGAGGAUAUCGUUUUUUUCACAUGAGGAUCACCCAUGUUAUCCAUGUUUCGUUUCGAGAAGGCGUAAGUU [JR_E5_Sub070] (puzzle: Exclusion 5) | – | – | – | 46.9 | – | – |
| AUCAUGUCAGGAUAUAUGACAUGGCUCUUCGGAGCAAGAUCAUAGAAGGGACAUGAGGAUCACCCAUGUAGAUC [Ex4-3: 23] (puzzle: Exclusion 4) | – | – | – | 195 | 41.9 | 188 |
| AUCCCUUGAGUAAGGAUAUGGCCAGGGAGGUCUGGCCAGAAGGUACAUGAGGAUCACCCAUGUAGGUUGUCGCA [Eternabot (L2) Solution 44] (Eterna round: R97, puzzle: Brourd's mod of Exclusion 4) | 56 | – | 20.6 | – | – | – |
| AUCCGUUCUUAGGAUAUUUGAUAAGUCAUGUACGAAGAAGGAAGAACAUGAGGAUCACCCAUGUGGGACUUCGG [Eternabot (L2) Solution 12] (Eterna round: R97, puzzle: Exclusion 6) | 29 | – | 25.9 | – | – | – |
| AUCCUUAACAAGGAUAUCGGGCGGGUUUUUGUUUGAGAAGGUGUGACAUGAGGAUCACCCAUGUGGCGCGUGGG [-22, -20.4 kcal, A 22%] (Eterna round: R97, puzzle: Exclusion 6) | 285 | – | 887 | – | – | – |
| AUCGGCUCAGUCAGGAUAUGAUUGAAUCGUUGCAAUUAGAAGGGACAUGAGGAUCACCCAUGUGCGGUGCGGUC [Eternabot (L1) Solution 27] (Eterna round: R97, puzzle: Brourd's mod of Exclusion 4) | 178 | – | 169 | – | – | – |

| Sequence | apparent KD of MS2 coat protein (input ligand: FMN 200 uM) [nM] | apparent KD of MS2 coat protein [1] [nM] | apparent KD of MS2 coat protein (input ligand: none) [nM] | apparent KD of MS2 coat protein [2] [nM] | apparent KD of MS2 coat protein [3] [nM] | apparent KD of MS2 coat protein [4] [nM] |
| --- | --- | --- | --- | --- | --- | --- |
| AUCGGGUCAGGAUAUCAUAGGAGCUGAUAUCCUCGGCUCGGUGAGAAGGGACUUGAGGAUCACCCAAGUAGGGC [Ririonte] (Eterna round: R97, puzzle: Exclusion 4) | 44.4 | – | 46.1 | – | – | – |
| AUCGUGCAGCAAAGCUGUACGAGUACAUGAGGAUCACCCAUGUAGGAUAUGGUACGCAAAGCGUGCUAGAAGGAUAUGUGUAGG [Mat - Exclusion NG 3 - Mod of JL - D84] (Eterna round: R96, puzzle: Exclusion NG 3) | 69.6 | 44.6 | 57.1 | – | – | – |
| AUCGUGCAGCUUUGCUGUACGAGUACAUGAGGAUCACCCAUGUAGGAUAUGGUACGCAAAGCGUGCUAGAAGGAUAUGAGAAAU [Mat - Exclusion NG 3 - Mod of JL - D99] (Eterna round: R96, puzzle: Exclusion NG 3) | 30.7 | 18.8 | 36.3 | – | – | – |
| AUCGUGCAGCUUUGCUGUACGAGUACAUGAGGAUCACCCAUGUAGGAUAUGGUACGCUUUGCGUGCUAGAAGGAUAUGCGAUUG [EX ENG3 1.46] (Eterna round: R96, puzzle: Exclusion NG 3) | – | 36.5 | – | – | – | – |
| AUCGUGCAGCUUUGCUGUACGAGUACAUGAGGAUCACCCAUGUAGGAUAUGGUACGCUUUGCGUGCUAGAAGGAUAUGUGUAGG [JL EXNG3 1.36] (Eterna round: R96, puzzle: Exclusion NG 3) | 49.1 | 30.7 | 50.3 | – | – | – |
| AUCGUGUGAGGAUAUCGAUCAUGGAGGUCUAGGUCCAUGCGCGAGAAGGCACAUGAGGAUCACCCAUGUAAUGG [jl-ex4-4.30 ViennaUCT mod] (Eterna round: R97, puzzle: Exclusion 4) | 65.3 | – | 66.5 | – | – | – |
| AUCUACCGAGCAGGAUAUCCAGGCACAUGAGGAUCACCCAUGUCAGGGAGAGAAGUUGUUUGCGUGGAGAAGGGCUAUAAAUUA [Isdiatte] (Eterna round: R96, puzzle: Exclusion NG 2) | 314 | 163 | 162 | – | – | – |
| AUCUGUGAGCGAGGAUAUCUGCUGUUGUCGGUCGGAGAAGGCGCGGACAGAACAUGAGGAUCACCCAUGUGUAUGGGCGGCCUC [Isvetima] (Eterna round: R96, puzzle: Exclusion NG 1) | 256 | 14.1 | 99.6 | – | – | – |
| AUGAGACAUGAGGAUCACCCAUGUGAGGAUAUGUAUGGAUGGAGGAAAGAAUGAGAGAACAGAAGGCACGGAGG [JR_Exclu1_Sub065] (puzzle: Exclusion 1) | – | – | – | 72.7 | 70.7 | 112 |
| AUGCGACAUGAGGAUCACCCAUGUGAGGAUAUGCGAAUGCAGACUUCGGUUUGAUAGAGCAGAAGGCGCAGGUA [EX1 #15] (Eterna round: R97, puzzle: Exclusion 1) | 58.5 | – | 29.4 | – | – | – |
| AUGCUCCGUGUAGGAUAUCGCCGUACCACUCGGCGAGAAGGACAUGAGGAUCACCCAUGUAUGUUAUUAUCACGUGUGGCGCGC [Design 50] (Eterna round: R96, puzzle: Exclusion NG 1) | 46 | 12.9 | 20.5 | – | – | – |
| AUGGCAAAGUUAGGAUAUGCAGUCUCCAAGACUGCAGAAGGAACGGUCCUCCUCCCUGAAACAUGAGGAUCACCCAUGUAAAGC [Eternabot solution 45] (Eterna round: R96, puzzle: Exclusion NG 1) | 56.4 | 53.7 | 93.8 | – | – | – |
| AUGUGCACGCUGCGGUCCUACAUGAGGAUCACCCAUGUGGUCUGGUGGCGUGGGUCACCGGACUUGGCUCGUCUUGC [salish99_S_TOV1_R5_058] (Eterna round: R97, puzzle: Sensor, turn-off variant 1) | 21.4 | – | 21.2 | – | – | – |
| AUUAAACAUGUAGGAUAUGCGUGGCGAAGCUAUGCAGAAGGACAUGAGGAUCACCCAUGUAAAAGCGUCUGCGUACAGAUGCAA [Mat - Exclusion NG 1 - Mod of JL - D84] (Eterna round: R96, puzzle: Exclusion NG 1) | 468 | 28 | 38.9 | – | – | – |
| AUUAAGCAGCAGGAUAUAAGUAUCUGAUGGUGGUUAGAAGGGCUGACAUGAGGAUCACCCAUGUGCUCUUCGUG [Tieruseres] (puzzle: Exclusion 6) | – | – | – | 10.1 | 16.1 | 14.1 |
| AUUAGCGUAGGAUAUUGAAACAUGUACAUGAGGAUCACCCAUGUGAGGUGAGUCUUCGUUUAAGAAGGGCGCAGAA [EX5 #40] (Eterna round: R97, puzzle: Exclusion 5) | 213 | – | 1030 | – | – | – |
| AUUAUGUCAGGAUAUCAGUAGUAAAAAAAAAAAAUUACUACUGAGAAGGGACAUGAGGAUCACCCAUGUCAAAA [EX4 308: Super Stable 8] (Eterna round: R96, puzzle: Exclusion 4) | – | 21.3 | – | – | – | – |
